Our source for the EC50 [nM], 0% HSA and EC50 [nM], 0.1% HSA values is patent US12679878B2, “CRF2 receptor agonists and their use in therapy” (SANOFI, priority 2020, dated 2026).

Starred links: 1 amine or outer side, 2 acyl side, 3 side chain; linkers in the order of their positions; H or OH if unused. Non-standard residues stand in square brackets, D forms with d. Groups on a side chain read outwards from the residue. No end group written: not given here. *: point of attachment. C18 diacid = O=C(O)CCCCCCCCCCCCCCCCC(=O)*; γGlu = O=C(O)[C@H](CCC(=O)[*:2])N[*:1]; AEEA = NCCOCCOCC(=O)O; Aib = CC(C)(N)C(=O)O

The experiment addresses human corticotropin-releasing factor 2α (CRF2 α receptor) (human), Q13324. Description: cell-based or functional assay.

human corticotropin-releasing factor 2α (CRF2 α receptor) (human), Q13324, sequence (Q13324 20-411): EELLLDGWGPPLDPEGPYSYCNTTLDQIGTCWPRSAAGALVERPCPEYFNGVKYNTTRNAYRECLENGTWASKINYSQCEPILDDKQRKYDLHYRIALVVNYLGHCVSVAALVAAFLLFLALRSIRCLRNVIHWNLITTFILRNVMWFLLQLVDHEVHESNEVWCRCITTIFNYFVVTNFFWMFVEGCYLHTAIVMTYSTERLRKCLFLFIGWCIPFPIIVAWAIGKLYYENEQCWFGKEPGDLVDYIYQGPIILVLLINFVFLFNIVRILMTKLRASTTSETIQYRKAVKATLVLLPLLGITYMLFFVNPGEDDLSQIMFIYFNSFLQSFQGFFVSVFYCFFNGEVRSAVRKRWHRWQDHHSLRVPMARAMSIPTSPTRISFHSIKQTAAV

B1: SEQ ID NO: 100 (peptide)
peptide: IVLSLDVPIKLK([AEEA-AEEA-γGlu-C18 diacid])KILLKQERQKK[Aib]REQAETN[Aib]QILAQV-NH2
modifications: N-terminus assumed
SMILES: CC[C@H](C)[C@H](N)C(=O)N[C@H](C(=O)N[C@@H](CC(C)C)C(=O)N[C@@H](CO)C(=O)N[C@@H](CC(C)C)C(=O)N[C@@H](CC(=O)O)C(=O)N[C@H](C(=O)N1CCC[C@H]1C(=O)N[C@H](C(=O)N[C@@H](CCCCN)C(=O)N[C@@H](CC(C)C)C(=O)N[C@@H](CCCCNC(=O)COCCOCCNC(=O)COCCOCCNC(=O)CC[C@H](NC(=O)CCCCCCCCCCCCCCCCC(=O)O)C(=O)O)C(=O)N[C@@H](CCCCN)C(=O)N[C@H](C(=O)N[C@@H](CC(C)C)C(=O)N[C@@H](CC(C)C)C(=O)N[C@@H](CCCCN)C(=O)N[C@@H](CCC(N)=O)C(=O)N[C@@H](CCC(=O)O)C(=O)N[C@@H](CCCNC(=N)N)C(=O)N[C@@H](CCC(N)=O)C(=O)N[C@@H](CCCCN)C(=O)N[C@@H](CCCCN)C(=O)NC(C)(C)C(=O)N[C@@H](CCCNC(=N)N)C(=O)N[C@@H](CCC(=O)O)C(=O)N[C@@H](CCC(N)=O)C(=O)N[C@@H](C)C(=O)N[C@@H](CCC(=O)O)C(=O)N[C@H](C(=O)N[C@@H](CC(N)=O)C(=O)NC(C)(C)C(=O)N[C@@H](CCC(N)=O)C(=O)N[C@H](C(=O)N[C@@H](CC(C)C)C(=O)N[C@@H](C)C(=O)N[C@@H](CCC(N)=O)C(=O)N[C@H](C(N)=O)C(C)C)[C@@H](C)CC)[C@@H](C)O)[C@@H](C)CC)[C@@H](C)CC)C(C)C)C(C)C
The molecule B1 gave an EC50 [nM], 0% HSA of 0.51 nM and an EC50 [nM], 0.1% HSA of 20.5 nM.

B2: SEQ ID NO: 102 (peptide)
peptide: IVLSLD[dV]PIKLK([AEEA-AEEA-γGlu-C18 diacid])QILLKQERQKKQREQAETNKQILAQV-NH2
modifications: N-terminus assumed
SMILES: CC[C@H](C)[C@H](N)C(=O)N[C@H](C(=O)N[C@@H](CC(C)C)C(=O)N[C@@H](CO)C(=O)N[C@@H](CC(C)C)C(=O)N[C@@H](CC(=O)O)C(=O)N[C@@H](C(=O)N1CCC[C@H]1C(=O)N[C@H](C(=O)N[C@@H](CCCCN)C(=O)N[C@@H](CC(C)C)C(=O)N[C@@H](CCCCNC(=O)COCCOCCNC(=O)COCCOCCNC(=O)CC[C@H](NC(=O)CCCCCCCCCCCCCCCCC(=O)O)C(=O)O)C(=O)N[C@@H](CCC(N)=O)C(=O)N[C@H](C(=O)N[C@@H](CC(C)C)C(=O)N[C@@H](CC(C)C)C(=O)N[C@@H](CCCCN)C(=O)N[C@@H](CCC(N)=O)C(=O)N[C@@H](CCC(=O)O)C(=O)N[C@@H](CCCNC(=N)N)C(=O)N[C@@H](CCC(N)=O)C(=O)N[C@@H](CCCCN)C(=O)N[C@@H](CCCCN)C(=O)N[C@@H](CCC(N)=O)C(=O)N[C@@H](CCCNC(=N)N)C(=O)N[C@@H](CCC(=O)O)C(=O)N[C@@H](CCC(N)=O)C(=O)N[C@@H](C)C(=O)N[C@@H](CCC(=O)O)C(=O)N[C@H](C(=O)N[C@@H](CC(N)=O)C(=O)N[C@@H](CCCCN)C(=O)N[C@@H](CCC(N)=O)C(=O)N[C@H](C(=O)N[C@@H](CC(C)C)C(=O)N[C@@H](C)C(=O)N[C@@H](CCC(N)=O)C(=O)N[C@H](C(N)=O)C(C)C)[C@@H](C)CC)[C@@H](C)O)[C@@H](C)CC)[C@@H](C)CC)C(C)C)C(C)C
Turning to B2, the EC50 [nM], 0% HSA came to 0.07 nM.

B3: SEQ ID NO: 101 (peptide)
peptide: IVLSLDVPIKLK([AEEA-AEEA-γGlu-C18 diacid])KILLKQERQKK[Aib]REQAETNKQILERV-NH2
modifications: N-terminus assumed
SMILES: CC[C@H](C)[C@H](N)C(=O)N[C@H](C(=O)N[C@@H](CC(C)C)C(=O)N[C@@H](CO)C(=O)N[C@@H](CC(C)C)C(=O)N[C@@H](CC(=O)O)C(=O)N[C@H](C(=O)N1CCC[C@H]1C(=O)N[C@H](C(=O)N[C@@H](CCCCN)C(=O)N[C@@H](CC(C)C)C(=O)N[C@@H](CCCCNC(=O)COCCOCCNC(=O)COCCOCCNC(=O)CC[C@H](NC(=O)CCCCCCCCCCCCCCCCC(=O)O)C(=O)O)C(=O)N[C@@H](CCCCN)C(=O)N[C@H](C(=O)N[C@@H](CC(C)C)C(=O)N[C@@H](CC(C)C)C(=O)N[C@@H](CCCCN)C(=O)N[C@@H](CCC(N)=O)C(=O)N[C@@H](CCC(=O)O)C(=O)N[C@@H](CCCNC(=N)N)C(=O)N[C@@H](CCC(N)=O)C(=O)N[C@@H](CCCCN)C(=O)N[C@@H](CCCCN)C(=O)NC(C)(C)C(=O)N[C@@H](CCCNC(=N)N)C(=O)N[C@@H](CCC(=O)O)C(=O)N[C@@H](CCC(N)=O)C(=O)N[C@@H](C)C(=O)N[C@@H](CCC(=O)O)C(=O)N[C@H](C(=O)N[C@@H](CC(N)=O)C(=O)N[C@@H](CCCCN)C(=O)N[C@@H](CCC(N)=O)C(=O)N[C@H](C(=O)N[C@@H](CC(C)C)C(=O)N[C@@H](CCC(=O)O)C(=O)N[C@@H](CCCNC(=N)N)C(=O)N[C@H](C(N)=O)C(C)C)[C@@H](C)CC)[C@@H](C)O)[C@@H](C)CC)[C@@H](C)CC)C(C)C)C(C)C
Molecule B3 displayed an EC50 [nM], 0% HSA of 0.11 nM and an EC50 [nM], 0.1% HSA of 4.28 nM.

B4: SEQ ID NO: 103 (peptide)
peptide: IVLSLDVPIKLK([AEEA-AEEA-γGlu-C18 diacid])QILLEQERQK[Aib]QREQAETNKQILAQV-NH2
modifications: N-terminus assumed
SMILES: CC[C@H](C)[C@H](N)C(=O)N[C@H](C(=O)N[C@@H](CC(C)C)C(=O)N[C@@H](CO)C(=O)N[C@@H](CC(C)C)C(=O)N[C@@H](CC(=O)O)C(=O)N[C@H](C(=O)N1CCC[C@H]1C(=O)N[C@H](C(=O)N[C@@H](CCCCN)C(=O)N[C@@H](CC(C)C)C(=O)N[C@@H](CCCCNC(=O)COCCOCCNC(=O)COCCOCCNC(=O)CC[C@H](NC(=O)CCCCCCCCCCCCCCCCC(=O)O)C(=O)O)C(=O)N[C@@H](CCC(N)=O)C(=O)N[C@H](C(=O)N[C@@H](CC(C)C)C(=O)N[C@@H](CC(C)C)C(=O)N[C@@H](CCC(=O)O)C(=O)N[C@@H](CCC(N)=O)C(=O)N[C@@H](CCC(=O)O)C(=O)N[C@@H](CCCNC(=N)N)C(=O)N[C@@H](CCC(N)=O)C(=O)N[C@@H](CCCCN)C(=O)NC(C)(C)C(=O)N[C@@H](CCC(N)=O)C(=O)N[C@@H](CCCNC(=N)N)C(=O)N[C@@H](CCC(=O)O)C(=O)N[C@@H](CCC(N)=O)C(=O)N[C@@H](C)C(=O)N[C@@H](CCC(=O)O)C(=O)N[C@H](C(=O)N[C@@H](CC(N)=O)C(=O)N[C@@H](CCCCN)C(=O)N[C@@H](CCC(N)=O)C(=O)N[C@H](C(=O)N[C@@H](CC(C)C)C(=O)N[C@@H](C)C(=O)N[C@@H](CCC(N)=O)C(=O)N[C@H](C(N)=O)C(C)C)[C@@H](C)CC)[C@@H](C)O)[C@@H](C)CC)[C@@H](C)CC)C(C)C)C(C)C
With B4, the EC50 [nM], 0% HSA is 0.84 nM.

B5: SEQ ID NO: 99 (peptide)
peptide: IVLSLDVPIKLK([AEEA-AEEA-γGlu-C18 diacid])KILLKQERQKK[Aib]REQAEKNKQILAQV-NH2
modifications: N-terminus assumed
SMILES: CC[C@H](C)[C@H](N)C(=O)N[C@H](C(=O)N[C@@H](CC(C)C)C(=O)N[C@@H](CO)C(=O)N[C@@H](CC(C)C)C(=O)N[C@@H](CC(=O)O)C(=O)N[C@H](C(=O)N1CCC[C@H]1C(=O)N[C@H](C(=O)N[C@@H](CCCCN)C(=O)N[C@@H](CC(C)C)C(=O)N[C@@H](CCCCNC(=O)COCCOCCNC(=O)COCCOCCNC(=O)CC[C@H](NC(=O)CCCCCCCCCCCCCCCCC(=O)O)C(=O)O)C(=O)N[C@@H](CCCCN)C(=O)N[C@H](C(=O)N[C@@H](CC(C)C)C(=O)N[C@@H](CC(C)C)C(=O)N[C@@H](CCCCN)C(=O)N[C@@H](CCC(N)=O)C(=O)N[C@@H](CCC(=O)O)C(=O)N[C@@H](CCCNC(=N)N)C(=O)N[C@@H](CCC(N)=O)C(=O)N[C@@H](CCCCN)C(=O)N[C@@H](CCCCN)C(=O)NC(C)(C)C(=O)N[C@@H](CCCNC(=N)N)C(=O)N[C@@H](CCC(=O)O)C(=O)N[C@@H](CCC(N)=O)C(=O)N[C@@H](C)C(=O)N[C@@H](CCC(=O)O)C(=O)N[C@@H](CCCCN)C(=O)N[C@@H](CC(N)=O)C(=O)N[C@@H](CCCCN)C(=O)N[C@@H](CCC(N)=O)C(=O)N[C@H](C(=O)N[C@@H](CC(C)C)C(=O)N[C@@H](C)C(=O)N[C@@H](CCC(N)=O)C(=O)N[C@H](C(N)=O)C(C)C)[C@@H](C)CC)[C@@H](C)CC)[C@@H](C)CC)C(C)C)C(C)C
B5 came in with an EC50 [nM], 0% HSA of 0.06 nM and an EC50 [nM], 0.1% HSA of 1.6 nM.

B6: SEQ ID NO: 98 (peptide)
peptide: IVLSLDVPIKLK([AEEA-AEEA-γGlu-C18 diacid])QKLLKQERQKK[Aib]REQAETNKQILAQV-NH2
modifications: N-terminus assumed
SMILES: CC[C@H](C)[C@H](N)C(=O)N[C@H](C(=O)N[C@@H](CC(C)C)C(=O)N[C@@H](CO)C(=O)N[C@@H](CC(C)C)C(=O)N[C@@H](CC(=O)O)C(=O)N[C@H](C(=O)N1CCC[C@H]1C(=O)N[C@H](C(=O)N[C@@H](CCCCN)C(=O)N[C@@H](CC(C)C)C(=O)N[C@@H](CCCCNC(=O)COCCOCCNC(=O)COCCOCCNC(=O)CC[C@H](NC(=O)CCCCCCCCCCCCCCCCC(=O)O)C(=O)O)C(=O)N[C@@H](CCC(N)=O)C(=O)N[C@@H](CCCCN)C(=O)N[C@@H](CC(C)C)C(=O)N[C@@H](CC(C)C)C(=O)N[C@@H](CCCCN)C(=O)N[C@@H](CCC(N)=O)C(=O)N[C@@H](CCC(=O)O)C(=O)N[C@@H](CCCNC(=N)N)C(=O)N[C@@H](CCC(N)=O)C(=O)N[C@@H](CCCCN)C(=O)N[C@@H](CCCCN)C(=O)NC(C)(C)C(=O)N[C@@H](CCCNC(=N)N)C(=O)N[C@@H](CCC(=O)O)C(=O)N[C@@H](CCC(N)=O)C(=O)N[C@@H](C)C(=O)N[C@@H](CCC(=O)O)C(=O)N[C@H](C(=O)N[C@@H](CC(N)=O)C(=O)N[C@@H](CCCCN)C(=O)N[C@@H](CCC(N)=O)C(=O)N[C@H](C(=O)N[C@@H](CC(C)C)C(=O)N[C@@H](C)C(=O)N[C@@H](CCC(N)=O)C(=O)N[C@H](C(N)=O)C(C)C)[C@@H](C)CC)[C@@H](C)O)[C@@H](C)CC)C(C)C)C(C)C
For the molecule B6, the EC50 [nM], 0% HSA is 2.36 nM.
